Measured values taken from patent publication US10568344B2, “Methods of improving animal performance” (Novozymes A/S, priority 2015, dated 2020).
Where two headings read alike, the source gives them in different places. Marks after values point to notes of the source that are not given here.

Legend:
[1] = In vivo broiler trial 3, growth performance; set-up: species or system male broiler chickens; Motality: unit not given here
Description: The in vivo trial was carried out as described in example 7, except the feed was supplemented with the GH25 lysozyme (SEQ ID NO: 1) at 12.5 or 25 mg per kg feed, the GH24 lysozyme (SEQ ID NO: 4) at 12.5 or 25 mg per kg feed or with Avilamycin at an inclusion level of 10 mg/kg. No additional enzymes (e.g. phytase) were added to the feed. The experimental diets (Starter, Grower and Finisher) were based on soybean meal, wheat and rye (12%) as main ingredients (Table 8). The diets were formulated to contain 225 g crude protein and 12.5 MJ/kg MEN for the starter period, 215 g crude protein and 12.8 MJ/kg MEN for the grower period and 205 g crude protein and 13.0 MJ/kg MEN for the finisher period.

[2] = In vivo piglet trial, growth performance; set-up: species or system weaned piglets
Description: The trial was performed from Oct. 23 to Dec. 4, 2014 at the Research Center for Animal Nutrition (DSM Nutritional Products France, F-68305 Village-Neuf) according to the official French guidelines for experiments with live animals. One hundred and four castrated male crossbred (Large-White (female)×Redon (male)) weaned piglets having 28 days of age supplied by the commercial farm “[…] du Rhin” located in Balgau (France), were used in a 42-day experiment. The initial bodyweight of the piglets was 7.88±0.675 kg. They were sorted by body weight into 32 groups of 3 or 4 piglets and randomly allotted to each dietary treatment. Each group of animals was placed in one flat-deck cages and allocated to one of the different treatments. Each treatment was replicated with 8 cages using a total of 26 animals (6 cages of 3 animals/treatment and 2 cages of 4 animals/treatment) per treatment. […] Animals were housed in an environmentally controlled room. Room temperature was initially 27° C. and was lowered weekly by about 2° C. until 21-22° C. and relative humidity percentage was 50%. The experimental diets (Pre-Starter and Starter) were fed ad libitum in two feeding phases from day 0 to 14 (phase 1, Pre-starter) and day 14 to 42 (phase 2, Starter). The ingredient composition and the calculated nutrient levels of the experimental diets for phases 1 and 2 are presented in table 11. Both diets were formulated to meet the animals' requirements according NRC (2012) and were fed in pelleted form. Pelleting conditions were at 70° C. for 30 seconds. […] No additional enzymes (e.g. phytase) were added to the feed. […] Appropriate amount of the liquid preparations of lysozyme was diluted in water and sprayed onto the respective pelleted feed to get the final concentrations in the feed corresponding to the different treatments. For procedural balance of all treatments the same volume of water were also sprayed onto the pellets of the control diets. Body weight of the individual animals and feed consumption per pen were recorded on days 14 and 42 of the study. […] The experimental unit was the piglet, except for ADFI and FCR which were measured by cage, and in both cases, treatment was used as class variable. One-factorial ANOVA and Student-Newman-Keuls test was used to assess differences among means in treatment groups.

[3] = test system: Clostridium perfringens DSM756; assay type: cell-based; conditions: for Diameter of zone of incomplete inhibition of growth visible after MTT coloring: 100 μg/ml; for Diameter of clearing zone: lysozymes 100 μg/ml, bacitracin 50 μg/ml
[4] = test system: Exiguobacterium undae (DSM14481); assay: Lysozyme activity turbidity assay (optical density drop); assay type: biochemical; conditions: pH 5
[5] = Finisher (d 36-42), 12.5 mg/kg feed
[6] = Finisher (d 36-42), 25 mg/kg feed
[7] = Grower (d 22-36), 12.5 mg/kg feed
[8] = Grower (d 22-36), 25 mg/kg feed
[9] = Starter (d 1-22), 12.5 mg/kg feed
[10] = Starter (d 1-22), 25 mg/kg feed
[11] = Whole period (d 1-42), 12.5 mg/kg feed
[12] = Whole period (d 1-42), 25 mg/kg feed

B1: SEQ ID NO: 1: mature amino acid sequence of a wild type GH25 lysozyme from Acremonium alcalophilum with N-terminal SPIRR (protein)
chain: SPIRRRIPGFDISGWQPTTDFARAYANGDRFVYIKATEGTTFKSSAFSRQYTGATQNGFIRGAYHFAQPAASSGAAQARYFASNGGGWSKDGITLPGALDIEYNPNGATCYGLSQSAMVNWIEDFVTTYHGITSRWPVIYTTTDWWTQCTGNSNRFANRCPLWIARYASSVGTLPNGWGFYTFWQYNDKYPQGGDSNWFNGDASRLRALANGD
modifications: Wild type sequence with N-terminal SPIRR
[1]; 12.5 mg/kg
  Benefit over the NC diet: did not show any benefit
[1]; [5]
  FCR: 1.953
  FCR, Relative to C (%): 99.6%
  Feed intake: 1544 g/b
  Feed intake, Relative to C (%): 103.8%
  Weight gain: 794 g/b
  Weight gain, Relative to C (%): 104.2%
[1]; [6]
  FCR: 1.968
  FCR, Relative to C (%): 100.4%
  Feed intake: 1522 g/b
  Feed intake, Relative to C (%): 102.3%
  Weight gain: 775 g/b
  Weight gain, Relative to C (%): 101.8%
[1]; [7]
  FCR: 1.734
  FCR, Relative to C (%): 100.6%
  Feed intake: 2365 g/b
  Feed intake, Relative to C (%): 103.5%
  Weight gain: 1365 g/b
  Weight gain, Relative to C (%): 102.8%
[1]; [8]
  FCR: 1.692
  FCR, Relative to C (%): 98.2%
  Feed intake: 2308 g/b
  Feed intake, Relative to C (%): 101.0%
  Weight gain: 1364 g/b
  Weight gain, Relative to C (%): 102.7%
[1]; [9]
  FCR: 1.466
  FCR, Relative to C (%): 101.8%
  Feed intake: 1621 g/b
  Feed intake, Relative to C (%): 102.7%
  Weight gain: 1106 g/b
  Weight gain, Relative to C (%): 100.9%
[1]; [10]
  FCR: 1.413
  FCR, Relative to C (%): 98.1%
  Feed intake: 1596 g/b
  Feed intake, Relative to C (%): 101.1%
  Weight gain: 1129 g/b
  Weight gain, Relative to C (%): 103.0%
[1]; [11]
  EPEF: 398
  EPEF, Relative to C (%): 95.2%
  FCR: 1.695
  FCR, Relative to C (%): 100.9%
  Feed intake: 5529 g/b
  Feed intake, Relative to C (%): 103.3%
  Motality: 13.1
  Weight gain: 3264 g/b
  Weight gain, Relative to C (%): 102.5%
[1]; [12]
  EPEF: 428
  EPEF, Relative to C (%): 102.4%
  FCR: 1.660
  FCR, Relative to C (%): 98.8%
  Feed intake: 5426 g/b
  Feed intake, Relative to C (%): 101.4%
  Motality: 8.8
  Weight gain: 3269 g/b
  Weight gain, Relative to C (%): 102.6%
[1]; whole period, 25 mg/kg
  EPEF improvement compared to NC diet: 1.7%
  FCR improvement compared to NC diet: 1.4%
[2]; day 0-14, 50 ppm
  ADFI, % relative NC: 90.0%
  ADFI, Mean: 324 g/day
  ADWG, % relative NC: 96.2%
  ADWG, Mean: 279 g/day
  FCR, % relative NC: 94.4%
  FCR, Mean: 1.170^a
[2]; day 0-42, 50 ppm
  ADFI, % relative NC: 93.1%
  ADFI, Mean: 683^a g/d
  ADWG, % relative NC: 102.4%
  ADWG, Mean: 511 g/day
  EPEF, % relative NC: 113.0%
  EPEF, Mean: 383
  FCR, % relative NC: 90.4%
  FCR, Mean: 1.341^a
[2]; day 14-42, 50 ppm
  ADFI, % relative NC: 92.7%
  ADFI, Mean: 862^a g/d
  ADWG, % relative NC: 104.0%
  ADWG, Mean: 627 g/day
  FCR, % relative NC: 89.3%
  FCR, Mean: 1.379^a
[2]; overall period (day 0 to day 42), 50 mg/kg
  Improvement on FCR compared to the negative control: 9.6%
[2]; starter period, day 15 to day 42, 50 mg/kg
  Improvement to FCR compared to NC: 11.3%
[2]; starter period, 50 mg/kg
  Improvement of ADWG compared to the negative control diet: 4.0%
[2]; whole period, 50 mg/kg
  EPEF improvement compared to the negative control: 13.0%
  Improvement of ADWG compared to the negative control diet: 2.4%
[3]; 1/10 MHB, pH7, both experiments
  Inhibition zone: 11-13 mm
[3]; Experiment 1, 1/2 MHB pH 6
  Diameter of zone of incomplete inhibition of growth visible after MTT coloring: 20 mm
  Diameter of clearing zone: 6 mm
[3]; Experiment 1, 1/10 MHB pH 7
  Diameter of clearing zone: 13 mm
[3]; Experiment 2, 1/2 MHB pH 6
  Diameter of zone of incomplete inhibition of growth visible after MTT coloring: 19 mm
  Diameter of clearing zone: 4 mm
[3]; Experiment 2, 1/10 MHB pH 7
  Diameter of clearing zone: 11 mm
[3]; ½ MHB, pH 6, after coloring with MTT
  Larger incomplete clearing zone: 19-20 mm
[3]; ½ MHB, pH 6, both experiments
  Clearing zone diameter: 4-6 mm
[4]
  Lysozyme activity as measured by Optical Density Drop: + (pH 5)
